What was measured:
Conditions in all cases: both partners purified
Ssa1 = target: T1, Ssa1 (yeast (S. cerevisiae), UniProt P10591 1-642); assay: pull-down; GST-Fes1 (wild type or mutant, or GST alone) pulled down on glutathione resin; reactions with two or all three proteins; 6 μg each of His6-Fbp1 (1.6 μM), Hsp70 (0.9 μM) and GST-Fes1 (1.09 μM), with or without ATP, ADP or AMP (2.5 mM); 50 mM Tris-HCl pH 7.5, 150 mM NaCl, 2% glycerol, 5 mM MgCl2; 30 min at 4°C; stained SDS-PAGE gels
T1 construct: Ssa1, yeast cytosolic Hsp70; non-tagged; also called Hsp70; source: E. coli Rosetta 2(DE3), purified as described [51]

Ssa2 = target: T2, Ssa2 (yeast (S. cerevisiae), UniProt P10592 1-639); assay: as above
T2 construct: Ssa2, yeast cytosolic Hsp70; non-tagged; also called Hsp70; source: E. coli Rosetta 2(DE3), purified as described [51]

His6-Fbp1 P2A = target: T3, His6-Fbp1 P2A (yeast (S. cerevisiae), UniProt P09201 1-348, P2A); assay: pull-down; His6-Fbp1 (wild type or mutant) pulled down on Talon metal affinity resin; reactions with two or all three proteins; 6 μg each of His6-Fbp1 (1.6 μM), Hsp70 (0.9 μM) and GST-Fes1 (1.09 μM), with or without ATP, ADP or AMP (2.5 mM); 50 mM Tris-HCl pH 7.5, 150 mM NaCl, 2% glycerol, 5 mM MgCl2; 30 min at 4°C; washed with 5 mM imidazole, eluted with 250 mM imidazole; stained SDS-PAGE gels, bands quantified …
T3 construct: Fbp1, yeast gluconeogenic enzyme, P2A; the initiator methionine is counted as residue 1; source: E. coli expression, purified; not shown: His6, N-terminal, kept
T3 sequence (looked up): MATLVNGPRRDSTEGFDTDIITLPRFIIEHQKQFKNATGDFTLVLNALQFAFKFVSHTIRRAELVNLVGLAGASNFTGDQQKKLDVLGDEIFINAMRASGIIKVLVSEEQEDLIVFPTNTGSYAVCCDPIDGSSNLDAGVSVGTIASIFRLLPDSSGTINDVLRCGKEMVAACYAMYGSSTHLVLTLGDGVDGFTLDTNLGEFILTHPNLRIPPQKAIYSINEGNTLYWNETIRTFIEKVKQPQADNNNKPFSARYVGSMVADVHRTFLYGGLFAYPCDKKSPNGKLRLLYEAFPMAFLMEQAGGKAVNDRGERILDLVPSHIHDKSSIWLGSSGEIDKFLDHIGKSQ

His6-Fbp1^P2A,S12A,T13A = target: T4, His6-Fbp1^P2A,S12A,T13A (yeast (S. cerevisiae), UniProt P09201 1-348, P2A | S12A | T13A); assay: as above
T4 construct: Fbp1, yeast gluconeogenic enzyme, P2A,S12A,T13A; the initiator methionine is counted as residue 1; source: E. coli expression, purified; not shown: His6, N-terminal, kept
T4 sequence (looked up): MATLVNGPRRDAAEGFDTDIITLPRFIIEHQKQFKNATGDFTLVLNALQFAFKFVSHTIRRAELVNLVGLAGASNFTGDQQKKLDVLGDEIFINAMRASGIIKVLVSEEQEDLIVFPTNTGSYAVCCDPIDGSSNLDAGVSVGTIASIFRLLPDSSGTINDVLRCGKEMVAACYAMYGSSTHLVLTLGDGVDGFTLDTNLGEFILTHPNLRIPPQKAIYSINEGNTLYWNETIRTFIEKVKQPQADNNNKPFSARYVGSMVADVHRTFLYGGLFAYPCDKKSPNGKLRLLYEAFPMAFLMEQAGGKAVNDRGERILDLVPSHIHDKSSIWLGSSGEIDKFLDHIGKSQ

His6-Fbp1 = target: T5, His6-Fbp1 (yeast (S. cerevisiae), UniProt P09201 1-348); assay: as above
T5 construct: Fbp1, yeast gluconeogenic enzyme; the initiator methionine is present in the purified protein and is counted as residue 1; also called wild type His6-Fbp1; not shown: His6, N-terminal, kept
T5 sequence (looked up): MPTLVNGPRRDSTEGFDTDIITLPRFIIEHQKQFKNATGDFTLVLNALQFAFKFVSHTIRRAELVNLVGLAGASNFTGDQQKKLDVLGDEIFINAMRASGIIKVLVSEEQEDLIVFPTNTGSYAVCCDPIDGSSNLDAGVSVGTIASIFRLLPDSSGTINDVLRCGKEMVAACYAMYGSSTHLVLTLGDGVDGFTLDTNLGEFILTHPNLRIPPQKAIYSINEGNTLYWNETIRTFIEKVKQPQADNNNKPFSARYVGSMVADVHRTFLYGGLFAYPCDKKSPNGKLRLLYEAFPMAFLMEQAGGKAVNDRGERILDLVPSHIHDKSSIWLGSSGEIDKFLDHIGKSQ

T2 sequence (P10592 whole entry): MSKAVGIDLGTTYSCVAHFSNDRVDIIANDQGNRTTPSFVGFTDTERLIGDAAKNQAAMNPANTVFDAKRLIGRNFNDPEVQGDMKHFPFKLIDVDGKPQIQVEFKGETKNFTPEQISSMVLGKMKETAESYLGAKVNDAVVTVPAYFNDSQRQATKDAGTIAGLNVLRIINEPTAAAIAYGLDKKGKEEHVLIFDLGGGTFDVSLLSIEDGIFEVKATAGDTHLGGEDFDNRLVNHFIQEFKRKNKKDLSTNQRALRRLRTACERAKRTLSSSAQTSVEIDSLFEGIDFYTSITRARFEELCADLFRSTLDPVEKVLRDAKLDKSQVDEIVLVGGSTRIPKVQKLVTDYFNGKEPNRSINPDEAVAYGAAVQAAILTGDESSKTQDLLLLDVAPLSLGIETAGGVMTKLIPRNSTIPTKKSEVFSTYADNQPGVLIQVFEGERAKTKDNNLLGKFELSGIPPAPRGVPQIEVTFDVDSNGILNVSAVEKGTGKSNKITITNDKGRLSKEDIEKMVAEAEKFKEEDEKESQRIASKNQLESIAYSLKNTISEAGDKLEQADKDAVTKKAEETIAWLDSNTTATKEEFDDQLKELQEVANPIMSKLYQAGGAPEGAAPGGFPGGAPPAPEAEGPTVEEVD
T1 sequence (P10591 whole entry): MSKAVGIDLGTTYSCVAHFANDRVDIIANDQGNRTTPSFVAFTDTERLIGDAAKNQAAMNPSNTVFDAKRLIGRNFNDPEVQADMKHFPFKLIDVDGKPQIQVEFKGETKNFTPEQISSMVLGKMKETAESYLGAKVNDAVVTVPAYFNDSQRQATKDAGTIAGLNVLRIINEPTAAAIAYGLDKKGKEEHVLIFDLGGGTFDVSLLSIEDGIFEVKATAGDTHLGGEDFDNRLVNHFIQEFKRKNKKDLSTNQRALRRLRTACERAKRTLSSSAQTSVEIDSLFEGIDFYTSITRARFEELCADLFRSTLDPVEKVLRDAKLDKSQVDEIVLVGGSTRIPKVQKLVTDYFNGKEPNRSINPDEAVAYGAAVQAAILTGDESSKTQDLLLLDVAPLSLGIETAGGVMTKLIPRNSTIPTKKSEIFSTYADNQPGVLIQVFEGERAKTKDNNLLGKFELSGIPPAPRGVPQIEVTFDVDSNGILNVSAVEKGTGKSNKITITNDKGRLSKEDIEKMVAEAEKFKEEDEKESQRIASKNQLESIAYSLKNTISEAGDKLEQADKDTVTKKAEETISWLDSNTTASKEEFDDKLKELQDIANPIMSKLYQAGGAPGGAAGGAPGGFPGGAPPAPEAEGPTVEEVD

binding result (Ssa1): binds
binding result (Ssa2): binds
binding result (His6-Fbp1 P2A): binds
binding result (His6-Fbp1^P2A,S12A,T13A): binds
ratio of amounts Fes1/Ssa1 pulled down by Fbp1, no nucleotide (His6-Fbp1): 0.23
ratio of amounts Fes1/Ssa1 pulled down by Fbp1, with ADP (His6-Fbp1): 0.5
ratio of amounts Fes1/Ssa1 pulled down by Fbp1, with AMP (His6-Fbp1): 0.18
ratio of amounts Fes1/Ssa1 pulled down by Fbp1, with ATP (His6-Fbp1): 0.58
ratio of amounts Fes1/Ssa2 pulled down by Fbp1, no nucleotide (His6-Fbp1): 0.33
ratio of amounts Fes1/Ssa2 pulled down by Fbp1, with ADP (His6-Fbp1): 0.67
ratio of amounts Fes1/Ssa2 pulled down by Fbp1, with AMP (His6-Fbp1): 0.32
ratio of amounts Fes1/Ssa2 pulled down by Fbp1, with ATP (His6-Fbp1): 0.79
B1: GST-Fes1 (natural protein, yeast (S. cerevisiae), UniProt P38260 1-290, looked up)
chain: MEKLLQWSIANSQGDKEAMARAGQPDPKLLQQLFGGGGPDDPTLMKESMAVIMNPEVDLETKLVAFDNFEMLIENLDNANNIENLKLWEPLLDVLVQTKDEELRAAALSIIGTAVQNNLDSQNNFMKYDNGLRSLIEIASDKTKPLDVRTKAFYALSNLIRNHKDISEKFFKLNGLDCIAPVLSDNTAKPKLKMRAIALLTAYLSSVKIDENIISVLRKDGVIESTIECLSDESNLNIIDRVLSFLSHLISSGIKFNEQELHKLNEGYKHIEPLKDRLNEDDYLAVKYVL
notes: Fes1, yeast Hsp70 nucleotide exchange factor; also called wild type GST-Fes1; source: E. coli expression, purified as described [15]; not shown: GST, N-terminal, kept

Source: paper PMC6615629, “Hsp70-nucleotide exchange factor (NEF) Fes1 has non-NEF roles in degradation of gluconeogenic enzymes and cell wall integrity” (PLoS Genetics, 2019)
